A protein production outcome set (Wang et al. 2014)

experiment: label from the status in PepcDB records
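Also: failed if final PepcDB status was selected cloned or expressed and not failed if soluble or beyond.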

Row | Sequence | protein production
1 | MKEFFKMFFASILGVITAGIILFCIFLFIFFGIVAGIASKATGGTIPKIEANSILHIDNSSFPEIVSANPWSMLTGKDESVSLSQAVEAIGQAKNNPNITGIFLDLDNLSVGMASAEELRRALQDFKMSGKFVVSYADRYTQKGYYLSSIADKLYLNPKGMLGLIGIATQTMFYKDALDKFGVKMEIFKVGTYKAAVEPFMLNRMSDANREQITTYINGLWDKITSDIAESRKTAMDSVKMFADKGEMFGLAEKAVEMKLVDELAYRTDVEKELKKMSQRGEKDELRFVSLSQVLANGPMNKTKGSRIAVLFAEGEITEEIIKKPFDTDGSSITQELAKEIKAAADDDDIKAVVLRVNSPGGSAFTSEQIWKQVADLKAKKPIVVSMGDVAASGGYYIACAANSIVAEHTTLTGSIGIFGMFPNFAGVAKKIGVNMDVVQTSKYADLGNTFAPMTVEDRALIQRYIEQGYDLFLTRVSEGRNRTKAQIDSIAQGRVWLGDKALALGLVDELGGLDTAIKRAAKLAQLGGNYSIEYGKTKRNFFEELLSSSAADMKSAILSTILSDPEIEVLRELRSMPPRPSGIQARLPYYFMPY | failed
2 | MKEGKHFVLVHGACHGGWSWYKLKPLLEAAGHKVTALDLAASGTDLRKIEELRTLYDYTLPLMELMESLSADEKVILVGHSLGGMNLGLAMEKYPQKIYAAVFLAAFMPDSVHNSSFVLEQYNERTPAENWLDTQFLPYGSPEEPLTSMFFGPKFLAHKLYQLCSPEDLALASSLVRPSSLFMEDLSKAKYFTDERFGSVKRVYIVCTEDKGIPEEFQRWQIDNIGVTEAIEIKGADHMAMLCEPQKLCASLLEIAHKYNLEHHHHHH | not failed
3 | MKEIALLAIARYGDLIQTTPLVRALRRAHPGARITAIVEDRFCGILPLLPGIDRTIVLNKQDIAWDIATGDSPLVPYLKMDEFVRKLEEGSYDLLVNITCSRLSAFFASCVTSRRRTGISADEAGERNIVTLEHHHHHH | failed
4 | MKEIKEITKKDVQDAEIYLYGSVVEGDYSIGLSDIDVAIVSDVFEDRNRKLEFFGKITKKFFDSPFEFHILTKKEWKMSKRFIRKYRRLDLIT | not failed
5 | MKEKDKWIKNFRTRMEGYSEPAPADLWEQLEKELDTVPKVIPMWRRWQAVAAVALLVVVSSLTVWFWQSPSANYLEKQSAELNVMHEPDELVPGSITPEQPMALVVPAARSGKKQHVKVGGVAKAEALAAEQEVLLNKEVEEIQIEENYIEEQKEESVIVEQKQQKQAGRSSYSAAKTNYAYVAPHRKKDRNWSVGLSTGNGTFSSSTSMDGYLPLPNGTRNATMNSAYGVETRAEIDKLVQFNNLSEGKDAQSDIKYRMPVTFGASLRFDLSDDWAVETGVTYTQLSSETRSGTEKNNYGWEEKLHYVGIPLKVNRNIWSNKRFEVYASAGGAVEKCVSGKRSIIGSVSTSNAGKDEQFSGGEENVKVKPLQWSLSAAAGAQFKITEKLGIYAEPGVVYYFDDGSNVNTIRKEHPFNFNIQLGVRFTLPK | failed
6 | MKEKVVSLAQDLIRRPSISPNDEGCQQIIAERLEKLGFQIEWMPFNDTLNLWAKHGTSEPVIAFAGHTDVVPTGDENQWSSPPFSAEIIDGMLYGRGAADMKGSLAAMIVAAEEYVKANPNHKGTIALLITSDEEATAKDGTIHVVETLMARDEKITYCMVGEPSSAKNLGDVVKNGRRGSITGNLYIQGIQGHVAYPHLAENPIHKAALFLQELTTYQWDKGNEFFPPTSLQIANIHAGTGSNNVIPAELYIQFNLRYCTEVTDEIIKQKVAEMLEKHNLKYRIEWNLSGKPFLTKPGKLLDSITSAIEETIGITPKAETGGGTSDGRFIALMGAEVVEFGPLNSTIHKVNECVSVEDLGKCGEIYHKMLVNLLDS | not failed
7 | MKELIKVIAFDADDTLWSNEPFFQEVEKQYTDLLKPYGTSKEISAALFQTEMNNLQILGYGAKAFTISMVETALQISNGKIAADIIRQIVDLGKSLLKMPIELLPGVKETLKTLKETGKYKLVVATKGDLLDQENKLERSGLSPYFDHIEVMSDKTEKEYLRLLSILQIAPSELLMVGNSFKSDIQPVLSLGGYGVHIPFEVMWKHEVTETFAHERLKQVKRLDDLLSLLG | not failed
8 | MKELTVPDTTPLLPIVDPFEQQDSEGPDSTKVYPFYRNLAEGKLTMQRCKSCGRIFYPPQAMCKHCNSTDYEWVEVPKRGKIHAFSALLLGFPMVIEEFAPFVIAVARFGDYPENGVQIVGAMFDVDYSELSIGDEVEWEILKIKGPGDKVRYWYHFRKVLEHHHHHH | failed
9 | MKEQSYGKFAKFLHWVMALMIIVLIAVGTYMAGLDKADPNKMLLVGMHKSFGVIFMQFAILRVIWSRLNNSPKLPDVLASWEKLLSKTITGSLYLLMLAIPFSGYAMTNLFGYPVSLFGLIDLPVLFGKNTEMALLAKQAHFLLVYTLMAALFAHITGALKHRFLDKPEADVLPRMMPIKPRI | failed
10 | MKERILQEIKTRVNRKSWELWFSSFDVKSIEGNKVVFSVGNLFIKEWLEKKYYSVLSKAVKVVLGNDATFEITYEAFEPHSSYSEPLVKKRAVLLTPLNPDYTFENFVVGPGNSFAYHAALEVAKHPGRYNPLFIYGGVGLGKTHLLQSIGNYVVQNEPDLRVMYITSEKFLNDLVDSMKEGKLNEFREKYRKKVDILLIDDVQFLIGKTGVQTELFHTFNELHDSGKQIVICSDREPQKLSEFQDRLVSRFQMGLVAKLEPPDEETRKSIARKMLEIEHGELPEEVLNFVAENVDDNLRRLRGAIIKLLVYKETTGKEVDLKEAILLLKDFIKPNRVKAMDPIDELIEIVAKVTGVPREEILSNSRNVKALTARRIGMYVAKNYLKSSLRTIAEKFNRSHPVVVDSVKKVKDSLLKGNKQLKALIDEVIGEISRRALSGLEHHHHHH | not failed
11 | MKERKKKYVALWQVMQRECRRLVSRPLYLFCMVIAPLFCYLFFTTLMDSGLPQNLPAGVVDMDDSSTSRNIVRNLDAFSQTGVVAHYSNVTDARIAVQEGKIYGFFYIPKGLSAEAQSQRQPKISFYTNYSYLIAGSLLFRDMKMMGELTAGSAARSVLYAKGATEDQAMGFLQPIVIDTHPLNNPWLNYSVYLCNTLIPGVLMLLIFMVTVYSIGVEIKDRTAREWLRMSNNSIYIALAGKLLPHTVVFFIMGIFYNVYLYGFLHFPCNSGIFPMIFATLCLVLASQCCGIVMIGTLPTLRLGLSFASLWGVISFSISGFSFPVMAMNPVLQALSNLFPLRHYFLIYVDQALNGYSMAYSWSNYMALLIFMMLPFFVVHRLKEALVYYKYIP | failed
12 | MKESRNTLNSSELNTTTSWSKHDTHWVLSLFGTAVGAGILFLPINLGIGGFWPLVAMAFLAFPMTYLAHRGLARFVLSSKIKNADFTDVVEEHFGAKAGRSISLLYFLSIFPILLIYGVGITNTVDSFMVNQAGMEALPRELLSGVLVFALIAIMMAGEKVMLRAFAVMVYPLVAILAFLSFYLMPNWTMPVLDTPDMGAFASTMWLAVPVVIFSFSHAAAISSFANVQRRHYGDDADAKAELILRCTSIMLIAFVLLFVFSCVLALSPEQLAQAKAQNVSVLSYLANATDNPFIATLGPLVAFVAITSSFLGHFLGARESLNGLITKHSNLSETRVDRISVVVLFLSIWAAAIMNPSILGMMEALSGPVIAMILFIMPMLAVHKIESMKQYRGKLSTYFVLITGIVAVSALVFSLLS | not failed
13 | MKETRGYGGDAPFCTRLNHSYTGMWAPERSAEARGNLTRPPGSGEDCGSVSVAFPITMLLTGFVGNALAMLLVSRSYRRRESKRKKSFLLCIGWLALTDLVGQLLTTPVVIVVYLSKQRWEHIDPSGRLCTFFGLTMTVFGLSSLFIASAMAVERALAIRAPHWYASHMKTRATRAVLLGVWLAVLAFALLPVLGVGQYTVQWPGTWCFISTGRGGNGTSSSHNWGNLFFASAFAFLGLLALTVTFSCNLATIKALVSRCRAKATASQSSAQWGRITTETAIQLMGIMCVLSVCWSPLLIMMLKMIFNQTSVEHCKTHTEKQKECNFFLIAVRLASLNQILDPWVYLLLRKILLRKFCQENPAVSS | failed
14 | MKEVIAQNAKLSADDLKEILPKANKLEDFAFEKNEDSTISEVFQAKNGSENEGYIIKVSPKGFNGPIDMVVAIDKNREISGVKVLSQAETPGLGAKVEESSFSEKFKGLTIEDNIKIVKTSPSSQGEIQGITGATISSNAVSSGINDAISFYKENVLGEDLSKEKILNLSKINLEGDLKELTIELEEGIDKVSIVSNGEKEIGYAIEASEVGMYEEKPIKFALGISTGGIITGVQIIDHKETAGLGDLIEDENFLNSFIGVSSLDKLSVKENTNEIDLSVYGEVVNVDSISGATKSSMAIIKGITNVINFYNNNLSLEHHHHHH | not failed
